Legend:
[1] = system: A549 cell-line derived mouse model of lung adenocarcinoma; experiment: A549 cell-line derived xenograft model; format: in vivo; conditions: A549, NCr nude mice, IP biweekly 500 μg, 10 doses
human HER2 = target: T1, human HER2 (Homo sapiens, UniProt P04626); experiment: ELISA specificity, human HER2; format: binding; conditions: antibody up to 10 μg/ml
T1 construct: purchased Sino Biological Inc., China
Method: (§1) ELISAs were used to determine the binding specificity of the antibodies. The antibodies were analysed for binding to human HER3 polypeptide, as well as respective mouse, rat and monkey homologues of HER3 (Sino Biological Inc., China). The antibodies were also analysed for their ability to bind to human EGFR and human HER2 (Sino Biological Inc., China).
ELISAs were carried out according to standard protocols. Briefly, 96-well plates (Nunc, Denmark) were coated with 0.1 μg/ml of target polypeptide in phosphate-buffered saline (PBS) for 16 h at 4° C. After blocking for 1 h with 1% BSA in Tris buffer saline (TBS) at room temperature, the anti-HER3 antibody was serially diluted with the highest concentration being 10 μg/ml, and added to the plate. Post 1 h incubation at room temperature, plates were washed three times with TBS containing 0.05% Tween 20 (TBS-T) and were then incubated with a HRP-conjugated anti-His antibody (Life Technologies, Inc., USA) for 1 h at room temperature. […] The reaction was stopped with 2M H2SO4, and OD was measured at 450 nm.
The antibodies were analysed for their ability to bind to human HER3 polypeptide as well as human HER1 (EGFR) and human HER2 (Sino Biological Inc., China). […]
ELISAs were carried out according to standard protocols. […] The reaction was stopped with 2M H2SO4, and OD was measured at 450 nm.

[2] = system: SNU16 cell-line derived mouse gastric carcinoma model; experiment: SNU16 cell-line derived xenograft model; format: in vivo; conditions: SNU16, IP biweekly 500 μg, 9 doses
Method: Tumor volumes were measured 3 times a week using a digital caliper and calculated using the formula [L ×W2/2]. Study End point was considered to have been reaches once the tumors of the control arm measured >1.5 cm in length.
The model was established by subcutaneous injection of 1×10^6 SNU16 cells into the right flank (n=6 mice per treatment group).
10D1 was administered IP, biweekly at 500 μg per dose (for a total of 9 doses); a control treatment group received an equal volume of PBS.

human HER3 = human HER3 (Homo sapiens, UniProt P21860); experiment: Global affinity study, Bio-Layer Interferometry (Octet QK384); format: binding; conditions: IgG1 format, 25° C.; read-out: KD
Method: The anti-HER3 antibody clones in IgG1 format were analysed for binding affinity to human HER3. Bio-Layer Interferometry (BLI) experiments were performed using the Octet QK384 system (ForteBio). anti-Human IgG Capture (AHC) Octet sensor tips (Pall ForteBio, USA) were used to anti-HER3 antibodies (25 nM). All measurements were performed at 25° C. with agitation at 1000 rpm. Kinetic measurements for antigen binding were performed by loading His-tagged human HER3 antigens at different concentrations for 120 s, followed by a 120 s dissociation time by transferring the biosensors into assay buffer containing wells. Sensograms were referenced for buffer effects and then fitted using the Octet QK384 user software (Pall ForteBio, USA). Kinetic responses were subjected to a global fitting using a one site binding model to obtain values for association (Kon), dissociation (Koff) rate constants and the equilibrium dissociation constant (KD). Only curves that could be reliably fitted with the software (R^2>0.90) were included in the analysis.
Bio-Layer Interferometry (BLI) experiments were performed using the Octet QK384 system (ForteBio). […] Binding was detected using titrated HIS-tagged human HER3 in steps of baseline (60 s), loading (120 s), baseline2 (60 s), association (120 s), dissociation (FcA 120 s, FcB 600 s) and regeneration (15 s). Sensorgrams were analysed as described in Example 3.3. […]

[3] = Pharmacokinetic analysis in NCr nude mice; conditions: 500 μg
Method: Female NCr nude mice approximately 6-8 weeks old were housed under specific pathogen-free conditions and treated in compliance with the Institutional Animal Care and Use Committee (IACUC) guidelines. 500 μg anti-HER3 antibody was administered and blood was obtained from 3 mice by cardiac puncture at baseline (−2 hr), 0.5 hr, 6 hr, 24 hr, 96 hr, 168 hr and 336 hr after administration. Antibody in the serum was quantified by ELISA.
The parameters for the pharmacokinetic analysis in rats and mice were derived from a non-compartmental model: maximum concentration (Cmax), AUC (0-336 hr), AUC (0-infinity), Half-life (t1/2), Clearance (CL), Volume of distribution at steady state (Vd).
Antibody in the serum was quantified by ELISA.
A single dose PK study was performed in NCr Nude mice (25 mg/kg HMBD-001, IV). A single dose PK study including a range of dose levels (2, 5, 10 and 25 mg/kg HMBD-001, IP) was conducted in A549 tumour bearing mice.

FaDu cells = experiment: CCK-8 proliferation assay, FaDu; format: cell-based, human; conditions: 5 days
Method: Briefly, N87 and FaDu cells were treated with serially diluted concentrations of anti-HER3 antibody 10D1, starting from 100 μg/ml with a 9-point half log dilution. Cell proliferation was measuring using the CCK-8 proliferation assay (Dojindo, Japan) after a period of 5 days, in accordance with the manufacturer's instructions. Briefly 1× CCK-8 solution was added to each well followed by incubation for 2 h at 37° C. The OD was then measured at 450 nm.

rat HER3 = target: T2, rat HER3 (Rattus norvegicus, UniProt Q62799); experiment: ELISA cross-reactivity, rat HER3; format: binding
T2 construct: purchased Sino Biological Inc., China
Method: as §1
ELISAs were carried out according to standard protocols. Briefly, 96-well plates (Nunc, Denmark) were coated with 0.1 μg/ml of target polypeptide in phosphate-buffered saline (PBS) for 16 h at 4° C. After blocking for 1 h with 1% BSA in Tris buffer saline (TBS) at room temperature, the anti-HER3 antibody was serially diluted with the highest concentration being 10 μg/ml, and added to the plate. Post 1 h incubation at room temperature, plates were washed three times with TBS containing 0.05% Tween 20 (TBS-T) and were then incubated with a HRP-conjugated anti-His antibody (Life Technologies, Inc., USA) for 1 h at room temperature. After washing, plates were developed with colorimetric detection substrate 3,3′,5,5′-tetramethylbenzidine (Turbo-TMB; Pierce, USA) for 10 min. The reaction was stopped with 2M H2SO4, and OD was measured at 450 nm. […]

T2 sequence (Q62799 20-1339): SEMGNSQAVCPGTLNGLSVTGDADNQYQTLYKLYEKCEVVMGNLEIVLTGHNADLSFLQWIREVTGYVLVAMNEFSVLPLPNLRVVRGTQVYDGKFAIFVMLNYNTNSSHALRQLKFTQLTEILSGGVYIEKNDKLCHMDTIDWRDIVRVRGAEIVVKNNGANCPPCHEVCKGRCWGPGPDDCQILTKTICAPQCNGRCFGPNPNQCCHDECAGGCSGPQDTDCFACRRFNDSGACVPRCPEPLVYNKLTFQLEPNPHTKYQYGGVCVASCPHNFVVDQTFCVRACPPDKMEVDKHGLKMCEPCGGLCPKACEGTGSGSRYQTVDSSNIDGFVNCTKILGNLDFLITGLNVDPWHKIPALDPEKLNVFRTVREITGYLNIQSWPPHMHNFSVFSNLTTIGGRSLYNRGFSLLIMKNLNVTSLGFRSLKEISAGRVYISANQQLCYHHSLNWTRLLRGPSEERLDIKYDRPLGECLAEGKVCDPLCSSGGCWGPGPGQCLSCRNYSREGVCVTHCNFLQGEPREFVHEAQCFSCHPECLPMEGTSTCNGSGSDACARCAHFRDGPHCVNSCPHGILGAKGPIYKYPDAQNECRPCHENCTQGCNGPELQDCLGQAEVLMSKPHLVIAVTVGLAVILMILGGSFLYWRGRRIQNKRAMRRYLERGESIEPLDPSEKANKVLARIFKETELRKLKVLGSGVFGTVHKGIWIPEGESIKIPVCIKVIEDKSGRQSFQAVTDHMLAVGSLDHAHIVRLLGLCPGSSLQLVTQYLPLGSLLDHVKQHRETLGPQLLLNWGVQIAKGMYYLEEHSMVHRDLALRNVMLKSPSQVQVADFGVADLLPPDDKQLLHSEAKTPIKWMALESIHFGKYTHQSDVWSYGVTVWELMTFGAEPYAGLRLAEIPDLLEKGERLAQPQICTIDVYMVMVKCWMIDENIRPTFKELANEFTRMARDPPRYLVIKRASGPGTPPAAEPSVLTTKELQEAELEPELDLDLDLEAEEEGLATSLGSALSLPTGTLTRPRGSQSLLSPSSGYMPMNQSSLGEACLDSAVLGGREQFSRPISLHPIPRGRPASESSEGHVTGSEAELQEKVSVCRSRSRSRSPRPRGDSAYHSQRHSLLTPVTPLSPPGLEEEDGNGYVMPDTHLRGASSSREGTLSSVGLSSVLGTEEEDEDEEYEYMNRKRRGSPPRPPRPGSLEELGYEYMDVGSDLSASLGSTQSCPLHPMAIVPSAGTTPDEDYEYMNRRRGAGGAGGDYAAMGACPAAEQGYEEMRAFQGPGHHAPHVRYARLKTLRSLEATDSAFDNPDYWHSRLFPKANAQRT

binding to human HER2 (human HER2): not to bind
Kd (human HER3): 9.58 nM
binding / cross-reactivity with rat HER3 (rat HER3): substantial cross-reactivity
B1: 10D1: anti-HER3 antibody clone, VH SEQ ID NO:24, VL SEQ ID NO:74; [1] of Example 2.2 (antibody, V domains shown)
VH: DVQLQESGPDLVKPSQSLSLTCTVTGYSITSGYSWHWIRQFPGNKLEWMGSIHYSGGTNYNPSLKSRISITRDTSKNQFFLQLNSVTTEDTATYFCARMTTAPRYPFDYWGQGTTLTVSS
VL: DIVMTQSQKFMSTSVGDRVSVTCKASQIVGSNVAWYQQKPGQSPKPLIYSASYRYSGVPDRFTASGSGTDFTLTITNVQSEDLAEYFCQQYSSHPLTFGAGTKLELK
inhibition of tumor growth [1]: ~91%
inhibition of tumor growth [2]: ~68%
half-life [3]: 16.3 days
cell proliferation (FaDu cells): dose-dependent inhibition of cell proliferation
